Results: patent US20240269194A1, “COMPOSITIONS AND METHODS FOR ISLET CELL TRANSPLANTS” (City of Hope, priority 2021, published 2024)

Target: T1, gastrin receptor CCKBR on human islets (human) (UniProt P32239)
T1 sequence (looked up): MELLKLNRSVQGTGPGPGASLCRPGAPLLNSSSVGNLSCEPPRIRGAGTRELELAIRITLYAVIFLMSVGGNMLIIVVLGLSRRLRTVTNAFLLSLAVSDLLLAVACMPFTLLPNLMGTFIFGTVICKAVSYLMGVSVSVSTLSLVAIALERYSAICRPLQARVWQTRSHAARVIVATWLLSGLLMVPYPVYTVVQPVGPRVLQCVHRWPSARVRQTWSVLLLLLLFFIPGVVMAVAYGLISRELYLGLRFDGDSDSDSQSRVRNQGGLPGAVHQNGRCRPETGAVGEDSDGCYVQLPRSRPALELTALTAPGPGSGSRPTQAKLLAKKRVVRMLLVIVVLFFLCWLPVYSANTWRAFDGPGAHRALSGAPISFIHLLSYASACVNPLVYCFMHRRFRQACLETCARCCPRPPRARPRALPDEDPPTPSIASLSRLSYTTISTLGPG
Assay: cell-based or functional assay

glucagon mRNA (qPCR) in human islets from donors with high HbA1c, 100 nM gastrin: 1.8 fold | insulin mRNA (qPCR) in human islets from donors with high HbA1c, 100 nM gastrin: > 2 fold | somatostatin mRNA (qPCR) in human islets from donors with high HbA1c, 100 nM gastrin: 2.5 fold
Substance: gastrin analogue [Leu^15] Gastrin-17 (GAST-17) (peptide)
